Experimental findings from patent US20250376539A1 (KIRA PHARMACEUTICALS SUZHOU, published 2025) are described below.

Test [1] deals with T1, recombinant human C2a, C-terminal 6His-tag, made in house (CHO cell expression) (human, UniProt P06681 244-752).
T1 sequence: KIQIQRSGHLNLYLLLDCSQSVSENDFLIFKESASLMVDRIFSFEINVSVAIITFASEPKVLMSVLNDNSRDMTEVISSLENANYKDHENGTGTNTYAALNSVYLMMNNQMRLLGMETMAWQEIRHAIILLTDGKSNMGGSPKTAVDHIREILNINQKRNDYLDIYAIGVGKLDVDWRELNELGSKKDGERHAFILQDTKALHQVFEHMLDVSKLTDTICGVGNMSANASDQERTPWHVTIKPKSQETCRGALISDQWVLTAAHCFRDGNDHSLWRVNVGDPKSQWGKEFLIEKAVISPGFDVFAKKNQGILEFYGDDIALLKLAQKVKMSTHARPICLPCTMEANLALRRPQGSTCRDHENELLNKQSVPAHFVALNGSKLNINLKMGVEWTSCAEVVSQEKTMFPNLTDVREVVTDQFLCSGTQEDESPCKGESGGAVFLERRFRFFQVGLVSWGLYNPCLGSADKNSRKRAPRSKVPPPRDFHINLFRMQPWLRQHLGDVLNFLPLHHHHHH
The experiment in a line: ELISA on human C2a, OD450nm against log Ab conc. (nmol/L). For orientation: ELISA stands for enzyme-linked immunosorbent assay.

Test [2] addresses T2, recombinant cyno C2a, C-terminal 6His-tag, made in house (CHO cell expression) (cynomolgus monkey, UniProt P06681 244-752 (human entry)).
T2 chain: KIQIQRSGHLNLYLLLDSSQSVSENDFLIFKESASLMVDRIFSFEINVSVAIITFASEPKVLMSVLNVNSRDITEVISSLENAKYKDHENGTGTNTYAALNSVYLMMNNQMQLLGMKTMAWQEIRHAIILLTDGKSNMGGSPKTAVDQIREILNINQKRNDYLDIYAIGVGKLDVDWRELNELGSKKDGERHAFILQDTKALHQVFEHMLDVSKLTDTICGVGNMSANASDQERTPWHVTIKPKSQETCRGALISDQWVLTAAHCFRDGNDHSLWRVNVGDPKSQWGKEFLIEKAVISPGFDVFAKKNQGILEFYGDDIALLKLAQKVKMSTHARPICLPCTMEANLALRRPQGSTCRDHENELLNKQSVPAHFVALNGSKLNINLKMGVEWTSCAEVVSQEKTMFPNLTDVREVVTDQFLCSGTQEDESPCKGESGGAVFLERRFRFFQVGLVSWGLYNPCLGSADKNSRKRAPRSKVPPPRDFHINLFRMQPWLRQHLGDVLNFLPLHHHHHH
The experiment in a line: ELISA on cyno C2a, OD450nm against log Ab conc. (nmol/L).

The target of test [3] is T3, recombinant human complement C2 (NP_000054.2), C-terminal 6His-tag, made in house (CHO cell expression) (human, UniProt P06681 21-752).
T3 construct: a linker before the tag is not described; also called human C2; Human C2
T3 sequence: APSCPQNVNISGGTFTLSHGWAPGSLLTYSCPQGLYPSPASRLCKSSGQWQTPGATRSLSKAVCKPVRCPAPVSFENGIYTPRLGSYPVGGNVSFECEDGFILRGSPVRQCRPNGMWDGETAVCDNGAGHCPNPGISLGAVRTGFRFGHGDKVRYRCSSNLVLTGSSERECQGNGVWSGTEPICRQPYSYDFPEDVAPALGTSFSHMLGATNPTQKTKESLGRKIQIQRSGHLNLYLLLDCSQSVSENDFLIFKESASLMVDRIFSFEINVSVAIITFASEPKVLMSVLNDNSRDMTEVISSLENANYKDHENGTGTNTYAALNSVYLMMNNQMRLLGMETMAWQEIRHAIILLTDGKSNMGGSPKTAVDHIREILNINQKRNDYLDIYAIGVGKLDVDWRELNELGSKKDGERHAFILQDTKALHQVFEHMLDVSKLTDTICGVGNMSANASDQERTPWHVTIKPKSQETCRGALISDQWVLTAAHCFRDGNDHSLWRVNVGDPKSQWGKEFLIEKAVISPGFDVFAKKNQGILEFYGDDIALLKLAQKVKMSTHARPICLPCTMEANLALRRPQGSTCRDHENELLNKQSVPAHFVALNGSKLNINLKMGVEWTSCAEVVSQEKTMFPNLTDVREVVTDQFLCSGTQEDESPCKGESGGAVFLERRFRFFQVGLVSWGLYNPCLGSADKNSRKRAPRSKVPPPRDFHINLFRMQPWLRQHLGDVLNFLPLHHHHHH
The experiment in a line: ELISA.

The target of test [4] is T4, recombinant cynomolgus (cyno) complement C2 (XP_005553508.1), C-terminal 6His-tag, made in house (CHO cell … (cynomolgus monkey (Macaca fascicularis), UniProt P06681 21-752 (human entry))).
T4 construct: also called cyno C2; Cyno C2
T4 chain: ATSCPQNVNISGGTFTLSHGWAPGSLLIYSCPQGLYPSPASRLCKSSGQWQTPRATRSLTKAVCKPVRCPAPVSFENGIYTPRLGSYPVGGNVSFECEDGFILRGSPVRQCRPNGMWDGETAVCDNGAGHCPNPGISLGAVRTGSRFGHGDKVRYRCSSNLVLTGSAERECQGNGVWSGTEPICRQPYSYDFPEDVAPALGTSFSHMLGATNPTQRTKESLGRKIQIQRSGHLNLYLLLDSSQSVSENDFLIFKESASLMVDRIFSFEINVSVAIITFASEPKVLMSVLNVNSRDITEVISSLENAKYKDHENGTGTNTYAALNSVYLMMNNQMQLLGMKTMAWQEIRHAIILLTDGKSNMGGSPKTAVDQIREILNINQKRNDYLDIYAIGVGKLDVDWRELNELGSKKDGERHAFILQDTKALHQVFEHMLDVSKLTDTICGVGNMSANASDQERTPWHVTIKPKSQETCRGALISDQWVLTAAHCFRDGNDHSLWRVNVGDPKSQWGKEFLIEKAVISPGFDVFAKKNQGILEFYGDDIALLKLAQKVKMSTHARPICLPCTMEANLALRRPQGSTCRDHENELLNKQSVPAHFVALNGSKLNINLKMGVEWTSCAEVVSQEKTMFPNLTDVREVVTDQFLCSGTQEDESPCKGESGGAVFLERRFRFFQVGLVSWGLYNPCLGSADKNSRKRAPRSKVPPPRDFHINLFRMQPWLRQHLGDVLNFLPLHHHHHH
The experiment in a line: ELISA.

The target of test [5] is T3, recombinant human complement C2 …. The experiment in a line: BLI (Gator); ratio of dissociation at pH 5.8 to pH 7.4. On the procedure: (§1) The histidine mutant constructs in Table 4 were tested for their pH-dependent dissociation from human C2. Probe-immobilized anti-C2 antibodies were incubated with C2 at pH 7.4 for 600s, followed by a 600s dissociation period in K Buffer at pH 7.4 or pH 5.8. The data were processed and analyzed by the Gator evaluation software.

Test [6] has the same target. The test can be described thus: BLI (Gator), antibody on probe; 600 s association at pH 7.4, 600 s dissociation at pH 7.4. The method, then: as §1
Test [7] shares this target. The experiment in a line: binding kinetics, neutral pH (BLI presumed).
Test [8] has the same target. The experiment in a line: BLI (Gator), antibody on probe; 600 s association at pH 7.4, 600 s dissociation at pH 5.8. On the procedure:
as §1

B1: anti-C2 antibody 34.5 (antibody, IgG4, V domains shown)
VH: QVQLQESGPGLVKPSQTLSLTCTVSGGSISRGGHQWTWIRQHPGKGLEWIGYIHHSGSTYYNPSLNDRLTILVDTPKNQFSLKLSSVTAADTAVYYCARWNLGSYGDYWGQGTLVTVSS
VL: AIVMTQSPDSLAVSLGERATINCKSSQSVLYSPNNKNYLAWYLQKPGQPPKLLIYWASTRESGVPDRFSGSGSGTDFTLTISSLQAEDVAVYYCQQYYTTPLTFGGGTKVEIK
notes: Recombinant
With B1, the binding result in test [1] and in test [2] was “no binding (tested: 100 nmol/L)” throughout. For the same molecule, the EC50 in test [3] turned out to be 0.0512 nM; in test [4], 0.0521 nM.

B2: anti-C2 antibody 199.1 (antibody, IgG4, V domains shown)
VH: QVQLQESGPGLVKPSQTLSLTCTVSGGSISRGGHQWSWIRQNPEKGLEWIGYIHHSGSTYYNPSLNNRLTILVDTPKNQFSLKLSSVTAADTAVYYCARWNLGSYGDYWGQGTLVTVSS
VL: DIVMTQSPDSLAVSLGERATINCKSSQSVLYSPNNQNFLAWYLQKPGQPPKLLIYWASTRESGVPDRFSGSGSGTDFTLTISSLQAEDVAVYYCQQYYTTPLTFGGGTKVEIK
notes: Recombinant
B2: the binding result in test [1] and in test [2] was “no binding (tested: 100 nmol/L)” throughout. For the same molecule, the EC50 in test [3] is 0.0479 nM; in test [4] it was 0.05 nM.

B3: 3.2 H2-10 × L1-4 (antibody, V domains shown)
VH: EVQLLESGGGLVQPGGSLRLSCAASGFTFRHYAMSWVRQAPGKGLEWVSLISGSGASTHYADSVKGRFTISRDNSENMLYLQMNSLRAEDTAVYYCAKDSLAVAGSEYFQHWGQGTLVTVSS
VL: SYVLTQAPSVSVAPGQTARITCGGNHFGGKSVHWYQQRPGQAPVLVVYDDSDRPSGIPERFSGSKSGNTATLAISRVEAGDEAAYYCQVYDTSSDHWVFGGGTKLTVL
notes: Histidine mutant of 3.2
As for B3, the “Fold dissociation pH 5.8/pH 7.4” value in test [5] came to 9.5 fold. The “Dissociation (%) pH 7.4” value in test [6] came out at 5.9%. Besides, in test [7], the dissociation constant (Kd) came out at 0.28 nM, the koff came out at 8.18e-05 s⁻¹ and the kon was found to be 293000 M⁻¹ s⁻¹. The “Dissociation (%) pH 5.8” value in test [8] amounted to 55.8%.

B4: anti-C2 antibody 48.14 (antibody, IgG4, V domains shown)
VH: EVQLLESGGGLVQPGGSLRLSCAASGFKFSYYAMSWVRQAPGKGLEWVSLISGSGYSTYFADSVKGRFTISRDNSKNTLYLQMNSLRAEDTAVYYCAKDSIAVAGSEYFQHWGQGTLVTVSS
VL: SYVLTQPPSVSVAPGQTARITCGGDNIGGKSVHWYQQKPGQAPVLVVYDDSDRPSGIPERFSGSDSGNTATLTISWVEAGDEADYYCQVWDDSSDHWVFGGGTKLTVL
notes: Recombinant
As for B4, the binding result in test [1] and in test [2] was “no binding (tested: 100 nmol/L)” in each case. The values for the EC50 in test [3] and in test [4] were 0.0514 nM and 0.0682 nM, respectively.

B5: 3.2 H2-10 × L3-6 (antibody, V domains shown)
VH: EVQLLESGGGLVQPGGSLRLSCAASGFTFRHYAMSWVRQAPGKGLEWVSLISGSGASTHYADSVKGRFTISRDNSENMLYLQMNSLRAEDTAVYYCAKDSLAVAGSEYFQHWGQGTLVTVSS
VL: SYVLTQAPSVSVAPGQTARITCGGNYFGGKSVHWYQQRPGQAPVLVVYDDSDRPSGIPERFSGSKSGNTATLAISRVEAGDEAAYYCQVYDTHSDHWVFGGGTKLTVL
notes: Histidine mutant of 3.2
For B5, the “Fold dissociation pH 5.8/pH 7.4” value in test [5] amounted to 9 fold. Moreover, the “Dissociation (%) pH 7.4” value in test [6] was 7.61%. Moreover, in test [7], the Kd was 0.42 nM, the koff came to 0.000119 s⁻¹ and the kon was 283000 M⁻¹ s⁻¹. In test [8], the “Dissociation (%) pH 5.8” value came out at 68.7%.

B6: 3.2 H2-10 × L1-10 (antibody, V domains shown)
VH: EVQLLESGGGLVQPGGSLRLSCAASGFTFRHYAMSWVRQAPGKGLEWVSLISGSGASTHYADSVKGRFTISRDNSENMLYLQMNSLRAEDTAVYYCAKDSLAVAGSEYFQHWGQGTLVTVSS
VL: SYVLTQAPSVSVAPGQTARITCGGNYFGGKSHHWYQQRPGQAPVLVVYDDSDRPSGIPERFSGSKSGNTATLAISRVEAGDEAAYYCQVYDTSSDHWVFGGGTKLTVL
notes: Histidine mutant of 3.2
In the case of B6, the “Fold dissociation pH 5.8/pH 7.4” value in test [5] turned out to be 10.4 fold. Besides, in test [6], the “Dissociation (%) pH 7.4” value came to 5.45%. In addition, in test [7], the Kd was 0.329 nM, the koff is 8.72e-05 s⁻¹ and the kon was found to be 265000 M⁻¹ s⁻¹. Further, the “Dissociation (%) pH 5.8” value in test [8] amounted to 56.6%.

B7: 3.2 H2-10 × L1-5 (antibody, V domains shown)
VH: EVQLLESGGGLVQPGGSLRLSCAASGFTFRHYAMSWVRQAPGKGLEWVSLISGSGASTHYADSVKGRFTISRDNSENMLYLQMNSLRAEDTAVYYCAKDSLAVAGSEYFQHWGQGTLVTVSS
VL: SYVLTQAPSVSVAPGQTARITCGGNYHGGKSVHWYQQRPGQAPVLVVYDDSDRPSGIPERFSGSKSGNTATLAISRVEAGDEAAYYCQVYDTSSDHWVFGGGTKLTVL
notes: Histidine mutant of 3.2
For the molecule B7, the “Fold dissociation pH 5.8/pH 7.4” value in test [5] was found to be 10.4 fold. In addition, the “Dissociation (%) pH 7.4” value in test [6] stood at 6.42%. Besides, in test [7], the Kd came out at 0.41 nM, the koff was 0.000112 s⁻¹ and the association rate constant (kon) turned out to be 272000 M⁻¹ s⁻¹. The “Dissociation (%) pH 5.8” value in test [8] was 66.7%.

Usually EC50 stands for the concentration at which the effect is half-maximal. For orientation: Kd means the free concentration of one partner at which half of the binding sites on the other are occupied at equilibrium, for simple one-to-one binding. Broadly, the koff is the first-order rate constant of dissociation. For orientation: kon means a measure of how fast the partners come together.
